Reference: US20250340654A1

Biological target: Canine IL-31RA ECD-10His (canine)
Assay: ELISA, IL-31RA coated at 1 ug/mL, biotinylated IL-31 titrated, HRP-streptavidin

Canine IL-31RA ECD-10His (canine), sequence (chain, as listed by the source limits assumed): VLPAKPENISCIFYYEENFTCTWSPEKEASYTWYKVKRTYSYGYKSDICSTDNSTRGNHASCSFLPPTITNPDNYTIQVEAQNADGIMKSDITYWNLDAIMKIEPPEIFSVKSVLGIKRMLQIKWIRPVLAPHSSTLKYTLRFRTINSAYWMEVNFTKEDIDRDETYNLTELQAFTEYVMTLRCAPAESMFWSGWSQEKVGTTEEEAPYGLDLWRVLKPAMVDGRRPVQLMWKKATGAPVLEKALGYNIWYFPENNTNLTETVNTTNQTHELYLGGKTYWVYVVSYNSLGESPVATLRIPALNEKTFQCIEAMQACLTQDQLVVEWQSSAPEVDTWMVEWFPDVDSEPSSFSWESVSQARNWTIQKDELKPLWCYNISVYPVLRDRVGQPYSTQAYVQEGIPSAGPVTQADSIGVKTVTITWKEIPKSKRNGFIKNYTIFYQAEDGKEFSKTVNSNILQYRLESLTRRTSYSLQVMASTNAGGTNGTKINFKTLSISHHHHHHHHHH

EC50: 0.55 ng/mL
Substance: biotinylated canine IL-31 (ligand)
